The values below come from patent publication US20240174992A1, “SPLIT MODIFIED DEHALOGENASE VARIANTS” (Promega Corporation, priority 2022, published 2024).

Bounds are passed on as bounds.

Holding throughout (assay): cell-based or functional assay
Experiment [1] deals with HaloTag[22-297](Q145H+P154R)-FRB (UniProt P42345).
Experiment [2] concerns the target HaloTag[22-297](M2F)-FRB (UniProt P42345).
Experiment [3] addresses HT(23-297)-FRB fragment fused to LgBiT (UniProt P42345).
Experiment [4] concerns the target HT(146-297)-FRB (UniProt P42345).
For experiment [5], the target named is HT(158-297)-FRB (UniProt P42345).
Experiment [6] concerns the target [196-297]-FRB (UniProt P42345).

Chain of HaloTag[22-297](Q145H+P154R)-FRB (P42345 other isoform, or with tags, fused parts or gaps Q145H P154R Q145H P154R): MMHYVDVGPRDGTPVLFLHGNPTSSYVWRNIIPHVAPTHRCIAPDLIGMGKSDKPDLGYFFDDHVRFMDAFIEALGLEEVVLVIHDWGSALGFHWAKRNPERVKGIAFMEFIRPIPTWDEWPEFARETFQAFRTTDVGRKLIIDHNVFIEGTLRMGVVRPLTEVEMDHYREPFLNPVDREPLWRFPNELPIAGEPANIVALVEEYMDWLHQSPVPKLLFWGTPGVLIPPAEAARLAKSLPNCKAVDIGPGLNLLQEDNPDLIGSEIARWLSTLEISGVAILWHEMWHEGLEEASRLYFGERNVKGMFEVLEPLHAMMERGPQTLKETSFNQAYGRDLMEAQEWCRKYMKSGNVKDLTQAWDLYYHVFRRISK
Chain of EGFP-FKBP-HaloTag[3-19] (P62942 other isoform, or with tags, fused parts or gaps): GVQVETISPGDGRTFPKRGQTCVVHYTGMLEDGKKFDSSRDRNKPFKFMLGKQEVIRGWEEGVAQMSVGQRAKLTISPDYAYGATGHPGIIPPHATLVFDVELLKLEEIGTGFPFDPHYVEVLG
Chain of [1-195]-FKBP (P62942 other isoform, or with tags, fused parts or gaps): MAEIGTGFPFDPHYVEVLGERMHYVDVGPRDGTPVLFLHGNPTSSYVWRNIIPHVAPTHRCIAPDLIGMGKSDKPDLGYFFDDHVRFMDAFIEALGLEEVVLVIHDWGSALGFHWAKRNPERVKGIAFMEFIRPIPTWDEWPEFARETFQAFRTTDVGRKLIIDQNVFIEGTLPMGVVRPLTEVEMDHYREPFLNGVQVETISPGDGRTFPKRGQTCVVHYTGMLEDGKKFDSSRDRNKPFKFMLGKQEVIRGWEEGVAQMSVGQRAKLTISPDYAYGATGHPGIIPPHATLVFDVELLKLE
Chain of FKBP-HT(1-33) fragment as SmBiT or HiBiT fragment fusions (P62942 other isoform, or with tags, fused parts or gaps): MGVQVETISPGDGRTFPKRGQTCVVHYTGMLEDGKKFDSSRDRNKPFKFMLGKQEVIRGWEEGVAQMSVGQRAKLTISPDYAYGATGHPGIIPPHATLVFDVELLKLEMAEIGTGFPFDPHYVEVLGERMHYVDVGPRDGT
Chain of HT(23-297)-FRB fragment fused to LgBiT (P42345 other isoform, or with tags, fused parts or gaps): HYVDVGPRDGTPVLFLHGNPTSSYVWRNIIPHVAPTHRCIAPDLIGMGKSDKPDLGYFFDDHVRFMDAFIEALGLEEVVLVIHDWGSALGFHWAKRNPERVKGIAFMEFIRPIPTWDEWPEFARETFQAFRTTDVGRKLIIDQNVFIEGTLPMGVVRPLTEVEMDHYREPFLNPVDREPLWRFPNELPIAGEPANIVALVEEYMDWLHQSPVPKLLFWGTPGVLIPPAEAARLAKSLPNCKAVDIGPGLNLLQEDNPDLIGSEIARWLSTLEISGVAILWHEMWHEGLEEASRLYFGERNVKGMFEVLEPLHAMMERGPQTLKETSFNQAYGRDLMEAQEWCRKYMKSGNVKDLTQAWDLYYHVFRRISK
Chain of HaloTag[22-297](M2F)-FRB (P42345 other isoform, or with tags, fused parts or gaps): as the sequence (P42345 other isoform, or with tags, fused parts or gaps Q145H P154R Q145H P154R) above, with M2F, H145Q, R154P counted along it
Chain of [196-297]-FRB (P42345 other isoform, or with tags, fused parts or gaps limits assumed): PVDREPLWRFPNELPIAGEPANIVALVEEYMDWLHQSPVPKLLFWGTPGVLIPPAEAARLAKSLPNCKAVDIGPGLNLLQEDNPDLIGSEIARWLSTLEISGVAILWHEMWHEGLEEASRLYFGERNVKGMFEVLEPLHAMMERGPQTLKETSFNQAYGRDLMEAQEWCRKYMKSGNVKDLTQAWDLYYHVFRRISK
Chain of HT(1-157)-FKBP (P62942 other isoform, or with tags, fused parts or gaps): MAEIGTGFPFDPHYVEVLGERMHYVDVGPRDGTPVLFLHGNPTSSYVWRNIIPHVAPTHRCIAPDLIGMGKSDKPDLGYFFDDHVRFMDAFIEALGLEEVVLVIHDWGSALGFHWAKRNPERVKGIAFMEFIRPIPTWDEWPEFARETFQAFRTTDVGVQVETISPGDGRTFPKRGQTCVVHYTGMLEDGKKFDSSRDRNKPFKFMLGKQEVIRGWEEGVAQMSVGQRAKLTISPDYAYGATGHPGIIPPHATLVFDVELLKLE
Chain of HT(158-297)-FRB (P42345 other isoform, or with tags, fused parts or gaps limits assumed): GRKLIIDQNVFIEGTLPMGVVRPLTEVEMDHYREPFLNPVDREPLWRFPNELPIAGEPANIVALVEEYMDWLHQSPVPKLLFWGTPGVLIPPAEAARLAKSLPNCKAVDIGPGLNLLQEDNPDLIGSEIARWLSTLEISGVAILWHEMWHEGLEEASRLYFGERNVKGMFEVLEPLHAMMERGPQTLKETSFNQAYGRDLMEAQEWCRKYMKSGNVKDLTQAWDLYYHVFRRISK
Chain of HT(146-297)-FRB (P42345 other isoform, or with tags, fused parts or gaps limits assumed): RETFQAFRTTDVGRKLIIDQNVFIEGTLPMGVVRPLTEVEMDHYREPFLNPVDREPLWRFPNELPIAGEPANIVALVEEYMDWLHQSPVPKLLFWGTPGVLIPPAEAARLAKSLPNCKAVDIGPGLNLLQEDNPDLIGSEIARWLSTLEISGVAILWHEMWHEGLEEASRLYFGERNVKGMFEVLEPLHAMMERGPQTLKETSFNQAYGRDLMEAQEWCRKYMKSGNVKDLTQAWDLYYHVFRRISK
Chain of HT(1-145)-FKBP (P62942 other isoform, or with tags, fused parts or gaps): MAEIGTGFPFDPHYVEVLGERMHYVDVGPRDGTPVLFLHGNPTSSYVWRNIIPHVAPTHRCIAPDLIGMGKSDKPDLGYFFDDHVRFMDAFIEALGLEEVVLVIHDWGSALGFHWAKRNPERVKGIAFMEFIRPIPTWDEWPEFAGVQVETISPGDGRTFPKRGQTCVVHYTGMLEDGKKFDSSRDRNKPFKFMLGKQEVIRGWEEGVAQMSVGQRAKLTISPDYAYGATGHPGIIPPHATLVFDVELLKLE

For “EGFP-FKBP-HaloTag[3-19] (from UniProt P62942 2-108)”, in experiment [1], the S:B ratio in +rapamycin/-rapamycin conditions, live HeLa imaging stood at 4; the fold response of JF646 fluorescence to rapamycin, live HeLa imaging stood at 25 fold; the signal-to-background ratio, complemented split HaloTag with rapamycin over the large HaloTag alone turned out to be 5.7. Also, in experiment [2], the S:B ratio in +rapamycin/-rapamycin conditions, live HeLa imaging came out at 6.7 and the signal-to-background ratio, complemented split HaloTag with rapamycin over the large HaloTag alone was determined as 16.
In turn, “FKBP-HT(1-33) fragment as SmBiT or HiBiT fragment fusions (from UniProt P62942 1-108)” had a fold increase in NanoBiT luminescence on addition of rapamycin in experiment [3] of 100 to 250 fold.
Regarding “HT(1-145)-FKBP (from UniProt P62942 2-108)”, the fold increase of JF646 and JF585 fluorescence in live HeLa cells with 50 nM rapamycin in experiment [4] was less than 2 fold.
In turn, “HT(1-157)-FKBP (from UniProt P62942 2-108)” displayed a fold increase of JF646 and JF585 fluorescence in live HeLa cells with 50 nM rapamycin in experiment [5] of less than 2 fold.
Turning to “[1-195]-FKBP (from UniProt P62942 2-108)”, in experiment [6], the fold increase in JF646 fluorescence with 50 nM rapamycin (E. coli lysates) was found to be 4.7 fold; the fold increase of JF646 and JF585 fluorescence in live HeLa cells with 50 nM rapamycin is less than 2 fold.
